Data on four variants can be found in PMC11189300.

B1: KNL1 residues 2,026–2,342 [human] / Mis12 complex full length: MIS12, PMF1, NSL1, DSN1 [human] (parent)
chain 1: SAQNEREKLQIKIDEMDKILKKIDNCLTEMETETKNLEDEEKNNPVEEWDSEMRAAEKELEQLKTEEEELQRNLLELEVQKEQTLAQIDFMQKQRNRTEELLDQLSLSEWDVVEWSDDQAVFTFVYDTIQLTITFEESVVGFPFLDKRYRKIVDVNFQSLLDEDQAPPSSLLVHKLIFQYVEEKESWKKTCTTQHQLPKMLEEFSLVVHHCRLLGEEIEYLKRWGPNYNLMNIDINNNELRLLFSSSAAFAKFEITLFLSAYYPSVPLPSTIQNHVGNTSQDDIATILSKVPLENNYLKNVVKQIYQDLFQDCHFYH
chain 2: MSVDPMTYEAQFFGFTPQTCMLRIYIAFQDYLFEVMQAVEQVILKKLDGIPDCDISPVQIRKCTEKFLCFMKGHFDNLFSKMEQLFLQLILRIPSNILLPEDKCKETPYSEEDFQHLQKEIEQLQEKYKTELCTKQALLAELEEQKIVQAKLKQTLTFFDELHNVGRDHGTSDFRESLVSLVQNSRKLQNIRDNVEKESKRLKIS
chain 3: MAEASSANLGSGCEEKRHEGSSSESVPPGTTISRVKLLDTMVDTFLQKLVAAGSYQRFTDCYKCFYQLQPAMTQQIYDKFIAQLQTSIREEISDIKEEGNLEAVLNALDKIVEEGKVRKEPAWRPSGIPEKDLHSVMAPYFLQQRDTLRRHVQKQEAENQQLADAVLAGRRQVEELQLQVQAQQQAWQALHREQRELVAVLREPE
chain 4: MAGSPELVVLDPPWDKELAAGTESQALVSATPREDFRVRCTSKRAVTEMLQLCGRFVQKLGDALPEEIREPALRDAQWTFESAVQENISINGQAWQEASDNCFMDSDIKVLEDQFDEIIVDIATKRKQYPRKILECVIKTIKAKQEILKQYHPVVHPLDLKYDPDPAPHMENLKCRGETVAKEISEAMKSLPALIEQGEGFSQVLRMQPVIHLQRIHQEVFSSCHRKPDAKPENFITQIETTPTETASRKTSDMVLKRKQTKDCPQRKWYPLRPKKINLDT
chain 5: MTSVTRSEIIDEKGPVMSKTHDHQLESSLSPVEVFAKTSASLEMNQGVSEERIHLGSSPKKGGNCDLSHQERLQSKSLHLSPQEQSASYQDRRQSWRRASMKETNRRKSLHPIHQGITELSRSISVDLAESKRLGCLLLSSFQFSIQKLEPFLRDTKGFSLESFRAKASSLSEELKHFADGLETDGTLQKCFEDSNGKASDFSLEASVAEMKEYITKFSLERQTWDQLLLHYQQEAKEILSRGSTEAKITEVKVEPMTYLGSSQNEVLNTKPDYQKILQNQSKVFDCMELVMDELQGSVKQLQAFMDESTQCFQKVSVQLGKRSMQQLDPSPARKLLKLQLQNPPAIHGSGSGSCQ

The first experiment covers variants of B1. Description: ITC. The settings on record: with Mis12 complex (Mis12C), syringe KNL1^M1, cell Mis12C^WT.
As to chain 1 SAQNEREKLQIKIDEMDKILKKIDNCLTEMETETKNLEDEEKNNPVEEWDSEMRAAEKELEQLKTEEEELQRNLLELEVQKEQTLAQIDFMQKQRNRTEELLDQLSLSEWDVVEWSDDQAVFTFVYDTIQLTITFEESVVGFPFLDKRYRKIVDVNFQSLLDEDQAPPSSLLVHKLIFQYVEEKESWKKTCTTQHQLPKMLEEFSLVVHHCRLLGEEIEYLKRWGPNYNLANIDINNNELRLLFSSWAAAAAFEITLFLSAYYPSVPLPSTIQNHVGNTSQDDIATILSKVPLENNYLKNVVKQIYQDLFQDCHFYH [chain 1 M231A S247W F250A K252A], the screen value was determined as 1.2.

The experiment is the same for the next values; noted with them: with Mis12 complex (Mis12C), syringe KNL1^M1, cell Mis12C^WT, parent: -12.
With chain 1 SAQNEREKLQIKIDEMDKILKKIDNCLTEMETETKNLEDEEKNNPVEEWDSEMRAAEKELEQLKTEEEELQRNLLELEVQKEQTLAQIDFMQKQRNRTEELLDQLSLSEWDVVEWSDDQAVFTFVYDTIQLTITFEESVVGFPFLDKRYRKIVDVNFQSLLDEDQAPPSSLLVHKLIFQYVEEKESWKKTCTTQHQLPKMLEEFSLVVHHCRLLGEEIEYLKRWGPNYNLANIDINNNELRLLFSSWAAAAAFEITLFLSAYYPSVPLPSTIQNHVGNTSQDDIATILSKVPLENNYLKNVVKQIYQDLFQDCHFYH [chain 1 M231A S247W F250A K252A], the dG was -9.35.

The experiment is the same for the next values; noted with them: with Mis12 complex (Mis12C), syringe KNL1^M2, cell Mis12C^WT.
In the case of chain 1 SAQNEREKLQIKIDEMDKILKKIDNCLTEMETETKNLEDEEKNNPVEEWDSEMRAAEKELEQLKTEEEELQRNLLELEVQKEQTLAQIDFMQKQRNRTEELLDQLSLSEWDVVEWSDDQAVFTFVYDTIQLTITFEESVVGFPFLDKRYRKIVDVNFQSLLDEDQAPPSSLLVHKLIFQYVEEKESWKKTCTTQHQLPKMLEEFSLVVHHCRLLGEEIEYLKRWGPNYNLANIDINNNELRLLFSSWAAAAEFEITLFLSAYYPSVPLPSTIQNHVGNTSQDDIATILSKVPLENNYLKNVVKQIYQDLFQDCHFYH [chain 1 M231A S247W F250A K252E], the screen value was -16.1.

The experiment is the same for the next values; noted with them: with Mis12 complex (Mis12C), syringe KNL1^M2, cell Mis12C^WT, parent: -12.
As for chain 1 SAQNEREKLQIKIDEMDKILKKIDNCLTEMETETKNLEDEEKNNPVEEWDSEMRAAEKELEQLKTEEEELQRNLLELEVQKEQTLAQIDFMQKQRNRTEELLDQLSLSEWDVVEWSDDQAVFTFVYDTIQLTITFEESVVGFPFLDKRYRKIVDVNFQSLLDEDQAPPSSLLVHKLIFQYVEEKESWKKTCTTQHQLPKMLEEFSLVVHHCRLLGEEIEYLKRWGPNYNLANIDINNNELRLLFSSWAAAAEFEITLFLSAYYPSVPLPSTIQNHVGNTSQDDIATILSKVPLENNYLKNVVKQIYQDLFQDCHFYH [chain 1 M231A S247W F250A K252E], the dG was -9.5.

Staying with this experiment, now noted: with KNL1 residues 2,026–2,342 [human]; syringe KNL1^WT; cell Mis12C^M1.
Regarding chain 3 MAEASSANLGSGCEEKRHEGSSSESVPPGTTISRVKLLDTMVDTFLQKLVAAGSYQRFTDCYKCFYQLQPAMTQQIYDKFIAQLQTSIREEISDIKEEGNLEAVLNALDKIVEEGKVRKEPAWRPSGIPEKDLHSVMAPYFLQQRDTLRRHVQKQEAENQQLADAVLAGRRQVEELQLQVQAQQQAWQALHREQAELLAVLREPE chain 5 MTSVTRSEIIDEKGPVMSKTHDHQLESSLSPVEVFAKTSASLEMNQGVSEERIHLGSSPKKGGNCDLSHQERLQSKSLHLSPQEQSASYQDRRQSWRRASMKETNRRKSLHPIHQGITELSRSISVDLAESKRLGCLLLSSFQFSIQKLEPFLRDTKGFSLESFRAKASSLSEELKHFADGLETDGTLQKCFEDSNGKASDFSLEASVAEMKEYITKFSLERQTWDQLLLHYQQEAKEILSRGSTEAKITEVKVEPMTYLGSSQNEVLNTKPDYQKILQNQSKVFDCMEFVMDELQGSVKQLQAFMDESTQCFQKVSVQLGKRSMQQLDPSPARKLLKLQLQNPPAIHGSGSGSCQ [chain 3 R195A V198L, chain 5 L290F], the screen value was 5.83.

The experiment is the same for the next values; noted with them: with KNL1 residues 2,026–2,342 [human]; syringe KNL1^WT; cell Mis12C^M2.
In the case of chain 3 MAEASSANLGSGCEEKRHEGSSSESVPPGTTISRVKLLDTMVDTFLQKLVAAGSYQRFTDCYKCFYQLQPAMTQQIYDKFIAQLQTSIREEISDIKEEGNLEAVLNALDKIVEEGKVRKEPAWRPSGIPEKDLHSVMAPYFLQQRDTLRRHVQKQEAENQQLADAVLAGRRQVEELQLQVQAQQQAWQALHREQEELLAVLREPE chain 5 MTSVTRSEIIDEKGPVMSKTHDHQLESSLSPVEVFAKTSASLEMNQGVSEERIHLGSSPKKGGNCDLSHQERLQSKSLHLSPQEQSASYQDRRQSWRRASMKETNRRKSLHPIHQGITELSRSISVDLAESKRLGCLLLSSFQFSIQKLEPFLRDTKGFSLESFRAKASSLSEELKHFADGLETDGTLQKCFEDSNGKASDFSLEASVAEMKEYITKFSLERQTWDQLLLHYQQEAKEILSRGSTEAKITEVKVEPMTYLGSSQNEVLNTKPDYQKILQNQSKVFDCMEFVMDELQGSVKQLQAFMDESTQCFQKVSVQLGKRSMQQLDPSPARKLLKLQLQNPPAIHGSGSGSCQ [chain 3 R195E V198L, chain 5 L290F], the screen value is -14.3.

The experiment is the same for the next values; noted with them: with KNL1 residues 2,026–2,342 [human]; syringe KNL1^WT; cell Mis12C^M2; parent: -12.
For chain 3 MAEASSANLGSGCEEKRHEGSSSESVPPGTTISRVKLLDTMVDTFLQKLVAAGSYQRFTDCYKCFYQLQPAMTQQIYDKFIAQLQTSIREEISDIKEEGNLEAVLNALDKIVEEGKVRKEPAWRPSGIPEKDLHSVMAPYFLQQRDTLRRHVQKQEAENQQLADAVLAGRRQVEELQLQVQAQQQAWQALHREQEELLAVLREPE chain 5 MTSVTRSEIIDEKGPVMSKTHDHQLESSLSPVEVFAKTSASLEMNQGVSEERIHLGSSPKKGGNCDLSHQERLQSKSLHLSPQEQSASYQDRRQSWRRASMKETNRRKSLHPIHQGITELSRSISVDLAESKRLGCLLLSSFQFSIQKLEPFLRDTKGFSLESFRAKASSLSEELKHFADGLETDGTLQKCFEDSNGKASDFSLEASVAEMKEYITKFSLERQTWDQLLLHYQQEAKEILSRGSTEAKITEVKVEPMTYLGSSQNEVLNTKPDYQKILQNQSKVFDCMEFVMDELQGSVKQLQAFMDESTQCFQKVSVQLGKRSMQQLDPSPARKLLKLQLQNPPAIHGSGSGSCQ [chain 3 R195E V198L, chain 5 L290F], the dG was -10.4.
